System: C[C@@H]1O[C@@H](Oc2ccc([N+](=O)[O-])cc2)[C@H](O)[C@H](O)[C@H]1O
Test: purified protein
Details: pH 6.5, 65 °C, no additives

α-L-rhamnosidase from A. terreus (Rha; synthetic gene MRha; RASE) (Aspergillus terreus)
Km: 481 ± 10 µM

— PMC5327507, “Enhancing the thermostability of α-L-rhamnosidase from Aspergillus terreus and the enzymatic conversion of rutin to isoquercitrin by adding sorbitol” (BMC Biotechnology, 2017)
